Drawing on the supplement of paper PMC10724198, this text covers protein stability index for 10 sequences.

The subject of data set [1] is Saccharomyces cerevisiae. The data set is described as follows: protein stability index of tFT-peptide fusion (C-terminal peptide) (PSI (0-1 scale)); higher = more stable (slower turnover). As to the method:
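MPS profiling in S. cerevisiae of the tFT-X12 degron library: putative degron peptides plus stable controls, 12 aa, fused to the C-terminus of a sfGFP-mCherry timer. Cells are FACS-sorted into 8 mCherry/sfGFP bins and deep-sequenced. PSI runs from 0 (unstable) to 1 (stable). Backgrounds are wild type, das1Δ and doa10Δ at 30 °C, and wild type, das1Δ, cdc34-1 and cdc53-1 at 37 °C; 2-3 technical replicates each.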

Data set [2] concerns Saccharomyces cerevisiae. Described as above. Particulars: genetic background: wild type; temperature: 30 C.
[3] abbreviates: genetic background: cdc34-1, temperature: 37 C.
Setting [4] is: genetic background: cdc53-1, temperature: 37 C.
Where [5] appears, read: genetic background: das1 deletion, temperature: 30 C.
[6] abbreviates: genetic background: das1 deletion, temperature: 37 C.
The mark [7] stands for this setting: genetic background: doa10 deletion, temperature: 30 C.
[8] abbreviates: genetic background: wild type, temperature: 30 C.
[9] abbreviates: genetic background: wild type, temperature: 37 C.

± gives the standard deviation of the averaged measurements.
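Further: PSI is a weighted mean of sequencing reads over stability bins, variants kept only with over 10 reads, mCherry proximal and sfGFP distal, peptide attached via GGGS linker.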

For the sequence WVRLGRSWTTVG, the protein stability index was determined as 0.68 ± 0.054 in the data set with Saccharomyces cerevisiae [1] (setting [3]); 0.736 ± 0.013 in the data set with Saccharomyces cerevisiae [1] (setting [4]); 0.686 ± 0.035 with Saccharomyces cerevisiae [1] (setting [5]); 0.754 ± 0.013 with Saccharomyces cerevisiae [1] (setting [6]); 0.22 ± 0.034 in the data set with Saccharomyces cerevisiae [1] (setting [7]); 0.283 ± 0.016 in the data set with Saccharomyces cerevisiae [1] (setting [8]). The protein stability index with Saccharomyces cerevisiae [1] (setting [9]) was found to be 0.549 ± 0.0057; with Saccharomyces cerevisiae [2] it was 0.422 ± 0.029.
Regarding WVRLWGVLEAQG, the protein stability index in the data set with Saccharomyces cerevisiae [1] (setting [3]) came out at 0.349 ± 0.013; in the data set on Saccharomyces cerevisiae [1] (setting [4]) it was 0.445 ± 0.022; with Saccharomyces cerevisiae [1] (setting [5]), 0.334 ± 0.028; with Saccharomyces cerevisiae [1] (setting [6]), 0.369 ± 0.0011; with Saccharomyces cerevisiae [1] (setting [7]) it was 0.344 ± 0.028; with Saccharomyces cerevisiae [1] (setting [8]) it was 0.332 ± 0.012. The protein stability index with Saccharomyces cerevisiae [1] (setting [9]) is 0.3675 ± 0.0028; with Saccharomyces cerevisiae [2], 0.3627 ± 0.0029.
Regarding WVSFYLLFFFSF, the protein stability index is 0.459 ± 0.007 in the data set on Saccharomyces cerevisiae [1] (setting [3]); 0.4959 ± 0.0028 in the data set on Saccharomyces cerevisiae [1] (setting [4]); 0.42 ± 0.044 with Saccharomyces cerevisiae [1] (setting [5]); 0.539 ± 0.015 with Saccharomyces cerevisiae [1] (setting [6]); 0.395 ± 0.0067 in the data set on Saccharomyces cerevisiae [1] (setting [7]); 0.395 ± 0.017 in the data set on Saccharomyces cerevisiae [1] (setting [8]). For the same sequence, the protein stability index with Saccharomyces cerevisiae [1] (setting [9]) worked out at 0.5 ± 0.015; in the data set on Saccharomyces cerevisiae [2], 0.483 ± 0.023.
As to YFFFPILCFCFF, the protein stability index in the data set on Saccharomyces cerevisiae [1] (setting [3]) stood at 0.439 ± 0.03; in the data set on Saccharomyces cerevisiae [1] (setting [4]), 0.43 ± 0.012; in the data set with Saccharomyces cerevisiae [1] (setting [5]) it was 0.38 ± 0.028; with Saccharomyces cerevisiae [1] (setting [6]), 0.479 ± 0.0088; in the data set with Saccharomyces cerevisiae [1] (setting [7]), 0.429 ± 0.028; in the data set on Saccharomyces cerevisiae [1] (setting [8]), 0.381 ± 0.018. The protein stability index in the data set on Saccharomyces cerevisiae [1] (setting [9]) worked out at 0.437 ± 0.0084; with Saccharomyces cerevisiae [2], 0.419 ± 0.047.
In the case of YFLFLRLVFLFF, the protein stability index in the data set on Saccharomyces cerevisiae [1] (setting [3]) is 0.217 ± 0.015; in the data set on Saccharomyces cerevisiae [1] (setting [4]) it was 0.222 ± 0.032; in the data set with Saccharomyces cerevisiae [1] (setting [5]), 0.233 ± 0.018; with Saccharomyces cerevisiae [1] (setting [6]) it was 0.3874 ± 0.0034; with Saccharomyces cerevisiae [1] (setting [7]), 0.186 ± 0.013; in the data set on Saccharomyces cerevisiae [1] (setting [8]), 0.178 ± 0.018. Further, the protein stability index in the data set on Saccharomyces cerevisiae [1] (setting [9]) turned out to be 0.257 ± 0.0034; in the data set on Saccharomyces cerevisiae [2] it was 0.23 ± 0.032.
Take YILLRWVNLSCL: the protein stability index worked out at 0.524 ± 0.012 in the data set with Saccharomyces cerevisiae [1] (setting [3]); 0.587 ± 0.013 with Saccharomyces cerevisiae [1] (setting [4]); 0.488 ± 0.022 in the data set on Saccharomyces cerevisiae [1] (setting [5]); 0.645 ± 0.0099 in the data set on Saccharomyces cerevisiae [1] (setting [6]); 0.149 ± 0.017 with Saccharomyces cerevisiae [1] (setting [7]); 0.156 ± 0.021 in the data set on Saccharomyces cerevisiae [1] (setting [8]). In addition, the protein stability index was determined as 0.283 ± 0.0069 in the data set with Saccharomyces cerevisiae [1] (setting [9]) and 0.236 ± 0.062 with Saccharomyces cerevisiae [2].
For the sequence YPVAWSSAIIIR, the protein stability index turned out to be 0.438 ± 0.041 with Saccharomyces cerevisiae [1] (setting [3]); 0.4531 ± 0.0036 in the data set on Saccharomyces cerevisiae [1] (setting [4]); 0.362 ± 0.022 with Saccharomyces cerevisiae [1] (setting [5]); 0.5314 ± 0.0037 in the data set on Saccharomyces cerevisiae [1] (setting [6]); 0.423 ± 0.018 with Saccharomyces cerevisiae [1] (setting [7]); 0.371 ± 0.017 with Saccharomyces cerevisiae [1] (setting [8]). Further, the protein stability index in the data set with Saccharomyces cerevisiae [1] (setting [9]) stood at 0.506 ± 0.0061; in the data set on Saccharomyces cerevisiae [2] it was 0.435 ± 0.025.
Consider YQKIARVSLAVS, for which the protein stability index came to 0.466 ± 0.015 in the data set with Saccharomyces cerevisiae [1] (setting [3]); 0.512 ± 0.02 with Saccharomyces cerevisiae [1] (setting [4]); 0.347 ± 0.038 in the data set on Saccharomyces cerevisiae [1] (setting [5]); 0.526 ± 0.014 in the data set on Saccharomyces cerevisiae [1] (setting [6]); 0.27 ± 0.021 with Saccharomyces cerevisiae [1] (setting [7]); 0.328 ± 0.025 in the data set on Saccharomyces cerevisiae [1] (setting [8]). In addition, the protein stability index stood at 0.4779 ± 0.0035 in the data set with Saccharomyces cerevisiae [1] (setting [9]) and 0.424 ± 0.015 with Saccharomyces cerevisiae [2].
For YVIGLLFVVSGV, the protein stability index in the data set with Saccharomyces cerevisiae [1] (setting [3]) amounted to 0.265 ± 0.013; with Saccharomyces cerevisiae [1] (setting [4]), 0.366 ± 0.025; with Saccharomyces cerevisiae [1] (setting [5]) it was 0.258 ± 0.044; in the data set with Saccharomyces cerevisiae [1] (setting [6]), 0.465 ± 0.029; in the data set on Saccharomyces cerevisiae [1] (setting [7]), 0.229 ± 0.0076; in the data set on Saccharomyces cerevisiae [1] (setting [8]), 0.251 ± 0.033. Besides, the protein stability index in the data set with Saccharomyces cerevisiae [1] (setting [9]) is 0.385 ± 0.03; in the data set with Saccharomyces cerevisiae [2], 0.39 ± 0.0085.
For the sequence YYKGGYLYLRLS, the protein stability index amounted to 0.398 ± 0.031 with Saccharomyces cerevisiae [1] (setting [3]); 0.4395 ± 0.0037 in the data set on Saccharomyces cerevisiae [1] (setting [4]); 0.454 ± 0.029 in the data set with Saccharomyces cerevisiae [1] (setting [5]); 0.607 ± 0.035 in the data set on Saccharomyces cerevisiae [1] (setting [6]); 0.171 ± 0.0093 with Saccharomyces cerevisiae [1] (setting [7]); 0.15 ± 0.018 in the data set with Saccharomyces cerevisiae [1] (setting [8]). The protein stability index was determined as 0.316 ± 0.036 in the data set with Saccharomyces cerevisiae [1] (setting [9]) and 0.253 ± 0.015 in the data set on Saccharomyces cerevisiae [2].
